Experimental findings from patent publication US20050272653A1 (ACCELERON PHARMA, published 2005) are described below.

The test has as its target T1, BSA (bovine, UniProt P02769 25-607).
T1 construct: Control analyte in the BiaCore experiment
The test can be described thus: BiaCore CM5 chip, BMP3 pro-MuIgG2a amine coupled, BSA flowed over.

T1 sequence (P02769 25-607 limits assumed): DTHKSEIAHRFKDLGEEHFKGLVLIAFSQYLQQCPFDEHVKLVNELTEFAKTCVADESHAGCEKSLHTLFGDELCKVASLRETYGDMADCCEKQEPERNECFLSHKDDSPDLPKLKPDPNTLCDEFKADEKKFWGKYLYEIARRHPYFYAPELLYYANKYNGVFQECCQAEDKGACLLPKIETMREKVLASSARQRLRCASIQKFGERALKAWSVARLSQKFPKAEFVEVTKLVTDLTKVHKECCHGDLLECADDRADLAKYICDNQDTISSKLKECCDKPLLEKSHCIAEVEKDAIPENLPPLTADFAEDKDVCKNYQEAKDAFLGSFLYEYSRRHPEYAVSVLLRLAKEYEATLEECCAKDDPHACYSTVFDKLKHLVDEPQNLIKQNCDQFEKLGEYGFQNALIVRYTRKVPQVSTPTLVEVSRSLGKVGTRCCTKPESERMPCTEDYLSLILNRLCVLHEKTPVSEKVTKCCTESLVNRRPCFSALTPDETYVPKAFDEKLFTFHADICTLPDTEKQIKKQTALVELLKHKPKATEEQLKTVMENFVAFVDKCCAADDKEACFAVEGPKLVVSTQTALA

B1: BMP3A propeptide-Murine IgG2a peptide Fc fusion protein (Fc fusion)
chain: ERPKPPFPELRKAVPGDRTAGGGPDSELQPQDKVSEHMLRLYDRYSTVQAARTPGSLEGGSQPWRPRLLREGNTVRSFRAAAAETLERKGLYIFNLTSLTKSENILSATLYFCIGELGNISLSCPVSGGCSHHAQRKHIQIDLSAWTLKFSRNQSQLLGHLSVDMAKSHRDIMSWLSKDITQFLRKAKENEEFLIGFNITSKGRQLPKRRLPFPEPYILVYANDAAISEPESVVSSLQGHRNFPTGTVPKWDSHIRAALSIERRKKRSTGVLLPLQNNELPGAEYQYKKDEVWEERKPYKTLQAQAPEKSKNKKKQRKGPHRKSQTLQFDEQTLKKARRK
notes: Expressed in HEK293 cells and purified on Protein A; highly glycosylated; also called BMP3 pro-MuIgG2a; BMP3 pro-MuIg2a; not shown: murine IgG2a Fc
Turning to B1, the binding result is listed as “no binding”.
